Measured values from PMC3078076.

Tests used:
Human HP1β CSD (human) [1] = assay: SEC
Human HP1β CSD (human) [2] = assay: crystal structure

Row | stoichiometry N (Human HP1β CSD (human) [1]) | stoichiometry N (Human HP1β CSD (human) [2]) | stoichiometry N (Sgo1P1 per two HP1β CSD) (Human HP1β CSD (human) [1]) | stoichiometry N (Sgo1P1 peptide per CSD dimer) (Human HP1β CSD (human) [2]) | Substance
1 | 2 | 2 |  |  | Human HP1β CSD (domain or fragment)
2 |  |  | 1 | 1 | Sgo1P1 (from UniProt Q5FBB7 425-443) (peptide)
